± gives the uncertainty stated by the source.
Test: amyloid nucleation score (Sup35N fusion, yeast selection) (log enrichment); library NNK2; higher = more nucleation; inactive = no reads after selection
In short: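 Psi-negative yeast expressed Sup35N fused to peptides of 20 random codons. They were induced 24 hours with 100 μM copper sulfate, grown 7 days at 30°C without adenine and uracil, and their plasmid inserts from input and output were Illumina-sequenced. The nucleation score is the DiMSum log enrichment of output over input reads, centred on the mode score of non-aggregating sequences. Sequences with under 100 input reads were excluded.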

| Substance | amyloid nucleation score |
| --- | --- |
| FFCLIVLVANVTCCGRDEGP | 5.32 ± 0.055 |
| FFEFKDNSSWFK | 3.3 ± 0.052 |
| FFFMTKNFKIFTSALDVPSE | -1.14 ± 1.1 |
| FFFNVSLHVRNFLEEVSVAS | inactive |
| FFFNYLSCLRNAVNWFNRGM | inactive |
| FFGRGSHKAGYYSCTTSLTQ | 1.07 ± 0.16 |
| FFLLAGVLDWAYGWYYIVWK | 0.147 ± 1.1 |
| FFMGGMRASNMDYATSWLK | 4.3 ± 0.099 |
| FFTGFDLVPVSYI | inactive |
| FFVPYDSYTYHLILFLKQLV | -0.535 ± 0.53 |
| FGDYPNSLKWLQE | -0.558 ± 0.63 |
| FGFYFLVSGLCRCDLPFHVL | -0.757 ± 0.76 |
| FGHNGRICKRLMEVPIFERA | -0.655 ± 0.32 |
| FGINSLYINKWSDRLRQCTR | -0.142 ± 0.79 |
| FGIQGWLFSNSWFLILVFFL | inactive |
| FGMYPVVGCLDRLYWMRLYA | 0.539 ± 0.81 |
| FGRRLQGRHINSNDQWGRQA | 0.339 ± 0.61 |
| FGRWHYLQRGFKRSGVHFNR | inactive |
| FGTYSI | 0.389 ± 0.74 |
| FGVHVRCSEDDMAFALDLD | 0.155 ± 0.28 |
| FGVIICAMSCQKD | 7.501 ± 0.026 |
| FGVTHVSWIQERVTADGAER | 0.998 ± 0.39 |
| FGYAVVQRYYKWWIAMNTQA | -0.04 ± 0.42 |
| FHMRFMMVFIRLKTRTKLIL | -0.797 ± 0.42 |
| FHSPLCSCQSSLKVEWGHSE | inactive |

| Substance | amyloid nucleation score |
| --- | --- |
| FIADIVYLMNFGEIWG | 4.68 ± 0.1 |
| FIADLSDMW | -0.916 ± 1.1 |
| FIARDRLMTDRTRGKPSWEG | 0.231 ± 0.3 |
| FIERSSLEDNVSSALAISR | 0.704 ± 0.47 |
| FIFKGNQWKVFVFL | 2.83 ± 0.068 |
| FIFVVMVMVWFWTGLCLSYN | inactive |
| FILCMTSWDYLDDCRFLFEL | 1.03 ± 0.25 |
| FINKIKVRLNLMSGSANRLL | 4.57 ± 0.11 |
| FINLYRVGVVCFILNKVGYF | 3.71 ± 0.052 |
| FISMNLEVSN | -0.26 ± 1 |
| FISSVIIGYSDPGVEGILLV | -0.922 ± 0.78 |
| FIYLIMFCKMVQWTIAFFKA | -0.658 ± 0.64 |
| FKIAGRI | inactive |
| FKNAWFLATFNPTT | -0.104 ± 0.23 |
| FKRSTCNLR | -0.479 ± 0.29 |
| FKSTNLMAWIFGMYIVFLGF | -0.08 ± 1 |
| FLFMLLSPVSMARLDKVMMG | 0.313 ± 0.65 |
| FLLDAPKLAEDEYPHGSDDN | inactive |
| FLLNIDTFSLMRSVTANTLV | -0.697 ± 0.48 |
| FLMRDFGMWFLFSNLLYITL | -0.628 ± 0.48 |
| FLMSTSLRSCICCVLLPSDN | 8.908 ± 0.032 |
| FLNESGSFWCSGFLIWVMRM | -0.568 ± 0.76 |
| FLNFIFELSSWMDF | -1.6 ± 1.1 |
| FLPCL | -0.739 ± 1 |
| FLQLLDNFALLDLVG | -0.12 ± 0.79 |

| Substance | amyloid nucleation score |
| --- | --- |
| FLSDATAYH | inactive |
| FLSRSQRCMIG | 0.313 ± 0.64 |
| FLSSSGRFSIVYSLFYEWIP | -0.674 ± 0.76 |
| FLSVEENGLTDVTVMGWFV | 0.19 ± 1.1 |
| FLVIVTVNLMYESQRMGSPV | inactive |
| FLWHCYNFLKAGS | inactive |
| FLYLIMKGPLAVKYCIKSLG | -0.545 ± 0.76 |
| FLYMQTMLCNSKVFQVSALC | inactive |
| FLYQEPSSCVTTAKISGLMA | inactive |
| FLYTCF | 0.509 ± 0.25 |
| FMECVSNNRMELVAGNEKGC | 0.082 ± 0.27 |
| FMFPGRRPFPIAMWELRFFS | -0.427 ± 1.1 |
| FMGRMTLGHKNAWVSSDRH | -1.33 ± 0.79 |
| FMGVKRVVTRVVCLQIGQPT | 7.11 ± 0.071 |
| FMQGPFNYTRMLSL | -0.808 ± 1.1 |
| FMRWSRISRSGYNDDGSLVG | 3.52 ± 0.067 |
| FMTLAGFSGAVEASGADWRR | -0.606 ± 0.63 |
| FMTVSDTMFHRIVASPQVPA | 0.87 ± 0.32 |
| FMVILYLDSLSLPWNWIVFG | 0.098 ± 0.54 |
| FNALTVDQTVHSYGVYADLP | 0.191 ± 0.21 |
| FNCEGLVNS | -1.25 ± 0.64 |
| FNDHWARRRRDFVNIWFWSE | -0.047 ± 1.1 |
| FNDRKYESCDSDDC | -1.99 ± 0.62 |
| FNISSNVICDNFRDPLVESD | -1.87 ± 0.78 |
| FNMVNTILMNGPSCWLQSVP | 0.21 ± 0.63 |

| Substance | amyloid nucleation score |
| --- | --- |
| FNRGKVMCVAYNGCSRYLMD | -1.64 ± 0.75 |
| FNSSLWVFRIPNCCNRSAYC | inactive |
| FNTCGSHRSGRRFL | inactive |
| FNVLIACWGYKDNFNVYSCE | 5.844 ± 0.035 |
| FNYDSLVSTRAYPFWTVTVF | 1.52 ± 0.43 |
| FQCNCTLSQIAWNKSQGQSS | -0.363 ± 1.1 |
| FRCIDFR | 0.674 ± 0.65 |
| FREVRRF | 0.631 ± 0.41 |
| FRFPFFVQWFFCLSGSQRAR | inactive |
| FRIGHSHGYLLM | -0.805 ± 1.1 |
| FRIKAEVGPIYTYDTGSFNW | -0.162 ± 0.27 |
| FRIPRWFKTS | -0.284 ± 1.1 |
| FRLPNVLRDGSA | 1.41 ± 0.41 |
| FRLSHFILVSHYLNNYEDSF | inactive |
| FRMLNRFLWFKVKMGYMHYG | -0.618 ± 0.42 |
| FRNFELSRTFVVYNPVLQCY | -0.473 ± 0.39 |
| FRPHQVV | inactive |
| FRRRRIFYYITEHVLLCMLK | -0.5 ± 0.64 |
| FRRYYLLFVPAFCVPLKCQY | 0.53 ± 0.66 |
| FRSKPAFRVMGVVCRGFYFL | -0.637 ± 1.1 |
| FRTTALLRFKRWDYGVIRNR | 0.021 ± 0.46 |
| FRVRRGLASGR | 1.28 ± 0.3 |
| FRWYFNVAATCGNRAPGRNV | 1.31 ± 0.18 |
| FRYFDWCIFYSYLLVCY | -1.96 ± 1.1 |
| FRYFSVP | -0.52 ± 0.36 |

| Substance | amyloid nucleation score |
| --- | --- |
| FSCHWAIMTRSGKVEVCNNQ | 5.47 ± 0.069 |
| FSDIWPLRP | 0.806 ± 0.15 |
| FSEWRIGKNMIFCDVIDVCE | 1.94 ± 0.089 |
| FSFEWMFWGWTCNQGTDVVS | -0.319 ± 0.54 |
| FSFIGFLNRNKSAALCKMDI | -1.16 ± 0.76 |
| FSFLHFVERLTGHLIYFSRF | inactive |
| FSFLKLIADPATLVIGTDSW | -0.492 ± 0.3 |
| FSFVTFSGNRFDFLLLRPCT | inactive |
| FSGFYLWSVDFVMLLGAWAH | inactive |
| FSGIYESPMVLHMV | -1.97 ± 0.62 |
| FSGLGDCEVMYVFVNNRLGW | -0.699 ± 1 |
| FSIKPLGQKDIR | 5.47 ± 0.073 |
| FSKHNSYGTNINNLFFSLLH | 6.19 ± 0.077 |
| FSKIIHDSALVNISWMHDGS | 0.844 ± 0.56 |
| FSLICIKIHEKGWQGEG | 4.17 ± 0.065 |
| FSLWSLERLKPIGLSSRMSG | 3.45 ± 0.16 |
| FSLYN | -1.64 ± 0.75 |
| FSMLRVYHLRPDLRVFCCAF | -0.108 ± 1.1 |
| FSMPLLALAFLL | inactive |
| FSMVT | 0.057 ± 0.63 |
| FSRCTSVEV | -0.699 ± 1 |
| FSRSYVPIMY | 0.759 ± 0.8 |
| FSRTSPIRQMIWKFLDCQPA | -0.978 ± 0.41 |
| FSSATDVCDGSRSIIRIAGA | -0.283 ± 1 |

Source: the supplement of paper PMC12042874
